Measured values as given in patent EP2225268B1.

Experiments:
[1] = target: Native NGAL purchased from Diagnostics Development (Uppsala, Sweden), non-reduced (UniProt P80188); assay: … sandwich CMIA, capture HYB 211-01, detection acridinium-HYB 211-02; NGAL 250 ng/mL
[2] = target: Wild-type recombinant human NGAL dimer calibrators treated with DTT (human) (UniProt P80188); assay: as above
[3] = target: Wild-type recombinant human NGAL dimer expressed in CHO cells (human) (UniProt P80188); assay: as above
[4] = target: Wild-type recombinant human NGAL monomer expressed in CHO cells (human) (UniProt P80188); assay: as above
[5] = target: Native NGAL purchased from Diagnostics Development (Uppsala, Sweden), non-reduced (UniProt P80188); assay: … sandwich CMIA, capture HYB 211-01, detection acridinium-HYB 211-02; non-reduced control sample
[6] = target: Wild-type recombinant human NGAL dimer calibrators treated with DTT (human) (UniProt P80188); assay: … sandwich CMIA, capture HYB 211-01, detection acridinium-HYB 211-02; curve fit with monomer calibrators; target 250 ng/mL
[7] = target: Wild-type recombinant human NGAL dimer expressed in CHO cells (human) (UniProt P80188); assay: as above
[8] = target: Wild-type recombinant human NGAL monomer expressed in CHO cells (human) (UniProt P80188); assay: as above
[9] = target: Wild-type recombinant human NGAL dimer calibrators treated with DTT (human) (UniProt P80188); assay: … sandwich CMIA, capture HYB 211-01, detection acridinium-HYB 211-02; DTT-treated against untreated dimer calibrator; target 5 ng/mL
[10] = target: Wild-type recombinant human NGAL dimer calibrators treated with DTT (human) (UniProt P80188); assay: … sandwich CMIA, capture HYB 211-01, detection acridinium-HYB 211-02; DTT-treated against untreated dimer calibrator; target 50 ng/mL
[11] = target: Wild-type recombinant human NGAL dimer calibrators treated with DTT (human) (UniProt P80188); assay: … sandwich CMIA, capture HYB 211-01, detection acridinium-HYB 211-02; DTT-treated against untreated dimer calibrator; target 600 ng/mL
[12] = target: Wild-type recombinant human NGAL dimer calibrators treated with DTT (human) (UniProt P80188); assay: … sandwich CMIA, capture HYB 211-01, detection acridinium-HYB 211-02; DTT-treated against untreated dimer calibrator; target 1000 ng/mL
[13] = target: Wild-type recombinant human NGAL dimer expressed in CHO cells (human) (UniProt P80188); assay: … sandwich CMIA, capture 1-2322-455, detection acridinium-1-903-430; NGAL 5 ng/mL
[14] = target: Wild-type recombinant human NGAL monomer expressed in CHO cells (human) (UniProt P80188); assay: as above
[15] = target: Wild-type recombinant human NGAL monomer expressed in CHO cells (human) (UniProt P80188); assay: … sandwich CMIA, capture 1-2322-455, detection acridinium-1-903-430; monomer calibrator plus TCEP; NGAL 50 ng/mL
[16] = target: Wild-type recombinant human NGAL dimer expressed in CHO cells (human) (UniProt P80188); assay: … sandwich CMIA, capture 1-2322-455, detection acridinium-1-903-430; NGAL Dimer High, 1500 ng/mL dimer calibrator
[17] = target: Wild-type recombinant human NGAL dimer expressed in CHO cells (human) (UniProt P80188); assay: … sandwich CMIA, capture 1-2322-455, detection acridinium-1-903-430; curve fit with monomer calibrators; target 50 ng/mL
[18] = target: Wild-type recombinant human NGAL monomer expressed in CHO cells (human) (UniProt P80188); assay: as above
[19] = target: Wild-type recombinant human NGAL dimer expressed in CHO cells (human) (UniProt P80188); assay: … sandwich CMIA, capture 1-2322-455, detection acridinium-1-903-430; curve fit with monomer calibrators; target 250 ng/mL
[20] = target: Wild-type recombinant human NGAL monomer expressed in CHO cells (human) (UniProt P80188); assay: as above
[21] = target: Wild-type recombinant human NGAL dimer calibrators with TCEP in the reaction mixture (human) (UniProt P80188); assay: … sandwich CMIA, capture 1-2322-455, detection acridinium-1-903-430; TCEP in reaction; curve fit with monomer calibrators; target 600 ng/mL
[22] = target: Wild-type recombinant human NGAL monomer expressed in CHO cells (human) (UniProt P80188); assay: … sandwich CMIA, capture 1-2322-455, detection acridinium-1-903-430; monomer calibrator plus TCEP; curve fit with monomer calibrators; target 600 ng/mL
[23] = target: Wild-type recombinant human NGAL monomer expressed in CHO cells (human) (UniProt P80188); assay: … sandwich CMIA, capture 1-2322-455, detection acridinium-1-903-430; monomer calibrator plus TCEP; curve fit with monomer calibrators; target 1000 ng/mL

“anti-NGAL antibody HYB 211-01 from AntibodyShop A/S, Gentofte, Denmark” showed an RLUs [1] of 620000 RLUs, an RLUs [2] of 378000 RLUs and an RLUs [3] of 142000 RLUs. The RLUs [4] was 396000 RLUs, the NGAL concentration detected [5] was 13.7 ng/mL and the Curve Fit Results [6] was 236 ng/mL. It also gave a Curve Fit Results [7] of 71.8 ng/mL, a Curve Fit Results [8] of 251 ng/mL and a % Increase due to DTT [9] of 229%. It also gave a % Increase due to DTT [10] of 247%, a % Increase due to DTT [11] of 256% and a % Increase due to DTT [12] of 277%.

B1: antibody produced by murine hybridoma cell line 1-2322-455 having ATCC Accession No. PTA-8024 (antibody, V domains shown)
VH: EVQLVESGGGLVQPGGSLKLSCAASGFTFNNYYMSWVRQTPERRLEWVAYISSSGGSTYYSDSVRGRFTISRDTARNTLYLQMTSLKSEDTAMYYCARHFGDYSYFDYWGQGTTLTVSS
VL: DIQMTQSPASLSASVGETVTITCRASENFYSYLAWYQQKQGKSPQLLVYNAKTLAEGVPSRFSGSGSGTQFSLKINSLQPEDFGTYYCQHHYDIPLTFGAGTKLELKR
In the case of B1, the RLUs [13] is reported as 9120 RLUs, the RLUs [14] is reported as 29300 RLUs and the RLUs [15] is reported as 241000 RLUs. For the same molecule, the NGAL concentration detected [16] was 309 ng/mL, the Curve Fit Results [17] was 13.5 ng/mL and the Curve Fit Results [18] was 48.2 ng/mL. The Curve Fit Results [19] was 71.7 ng/mL, the Curve Fit Results [20] was 255 ng/mL and the Curve Fit Results [21] was 292 ng/mL. For the same molecule, the Curve Fit Results [22] was 608 ng/mL and the Curve Fit Results [23] was 1030 ng/mL.
